Target: NLuc-NS2B-E66stop (DENV2)
Assay: split reporter

MBP-NS3 (from UniProt P29990 1476-2093) (enzyme)
IC50: 2500 nM

From paper PMC7269092
